{
  "source": "patent US20130165347",
  "tested_on": "Terminal deoxynucleotidyl transferase (TdT, pCMV-TdT / pMTdT)",
  "assay": "cell_activity",
  "conditions": "wild-type CHO KA8 cells, 19 of 27 clones, I-SceI-cleaved ends; 4% without TdT; N addition absent in Ku80- or XRCC4-deficient cells",
  "data": [
    {"sequence": "TACCCTGTTATCCCTA (double strand)", "values": [
      {"measurement": "activity (% junctions with N additions)", "value": 70}
    ]}
  ]
}
